Assay results reported in patent US20250057930A1, “ANAPLASTIC LYMPHOMA KINASE (ALK) CANCER VACCINES AND METHODS OF USE THEREOF” (The Children's Medical Center Corporation, priority 2022, published 2025).

Tested on: H2-Dd expression
Experiment: H2-Dd surface expression on MHC-I^low lung tumor escaper cell lines (flow cytometry)
Type: cell-based, mouse
Details: tumor cells stimulated in vitro with IFN-γ
Experimental: To uncover the mechanisms that would explain this resistance to treatment, ex vivo escaped tumors were isolated from each treatment group. […] To understand whether the observed H2-Dd downregulation was sufficient to impair tumor rejection, tumor cells with high H2-Dd isolated from untreated mice or tumor cells with low H2-Dd isolated from ALK vaccinated mice and treated with ICI were injected. Treatment with ICI induced rejection of tumors with high H2-Dd expression (FIGS. 6D-6E), consistent with previous experiments (FIG. 3E), but not of escaped tumors with low H2-Dd expression (FIGS. 6F-6G). Finally, it was asked whether H2-Dd expression could be restored by Stimulator of IFN genes (STING) signaling that can increase MHC-I expression in other models of lung cancer.
Allophycocyanin (APC)-conjugates H-2D^d-[…] (SEQ ID NO: 22) Dextramer reagents were obtained from Immudex (Immudex, Denmark). […] After washing step, cells were ready to be acquired. When referred, also PD-1 (clone RMP1-30; BV421-PD-1, BD Pharmingen™, USA) expression was evaluated together with dextramer staining, being added together with FITC-CD8. H2-Dd MHC-I expression was measured on relapsed tumors after treatment. […] All cells were acquired in a BD Celesta flow cytometer (BD Bioscience, USA) and analyzed by using the FlowJo software (FlowJo LCC, USA). […]

B1: IFN-γ: Recombinant murine IFN-γ (R&D Systems) (protein, UniProt P01580 23-155, looked up)
Interferon gamma: HGTVIESLESLNNYFNSSGIDVEEKSLFLDIWRNWQKDGDMKILQSQIISFYLRLFEVLKDNQAISNNISVIESHLITTFFSNSKAKKDAFMSIAKFEVNNPQVQRQAFNELIRVVHQLLPESSLRKRKRSRC
B1 was tested, and the H2-Dd expression was “H2-Dd expression was restored”.
